The record followed here is the nanobody polyreactivity screen of Harvey et al. (2022).

A short description of the series: yeast display, Sf9 membrane polyspecificity reagent, FACS + sequencing; frameworks hold sequencing errors. The method, boiled down:
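Nanobodies came from a synthetic yeast display library in Saccharomyces cerevisiae BJ5465, induced with galactose for 36–48 hours and stained for 1 hour at 4 °C with 10% biotinylated, detergent-solubilized Sf9 membrane reagent. Cells were enriched on streptavidin microbeads and then FACS-sorted, with low and high (top ~1%) gates set on anti-HA fluorescence for expression and streptavidin fluorescence for reagent binding. Each polyreactivity label reflects the gate a clone came from. Genes were amplified by colony PCR, sequenced by MiSeq 2 × 250 and filtered by CDR length.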
Turning to “QVQLVESGGGLVQAGGSLRLSCAASGRIFSIYGMGWYRQAPGKEREFVASITYSGGSTYYADSVKGRFTISRDYAKNTVYLQMNSLKPEDTAVYYCNADIEKSYNYWGQGTQVTVSS”, the “polyreactivity (PSR sort gate)” value is “low polyreactivity”. As for “QVQLVESGGGLVQAGGSLRLSCAASGRIFSIYGMGWYRQAPGKERELVAVISGSVAITYYADSVKGRFTISRDNAKNTVYLQMNSLKPEDTAVYYCAAVYQSRLWARYYYWGQGSQVTVSS”, the “polyreactivity (PSR sort gate)” value is listed as “high polyreactivity”. As for “QVQLVESGGGLVQAGGSLRLSCAASGRIFSIYGMGWYRQAPGKERELVAVISGSVGITYYADSVKGRFTISRDNAKNTVYLQMNSLKPEDTAVYYCNAKFRRRKYDYWGQGTQVTVSS”, the “polyreactivity (PSR sort gate)” value is “high polyreactivity”. For “QVQLVESGGGLVQAGGSLRLSCAASGRIFSKYAMGWYRQAPGKERELVAAIRSGGRTYYADSVKGRFTISRDNAKNTVYLQMNSLKPEDTAVYYCAKGTFRYPFSFTFLGYDYWGQGTQVTVSS”, the “polyreactivity (PSR sort gate)” value is recorded as “high polyreactivity”. “QVQLVESGGGLVQAGGSLRLSCAASGRIFSLYAMGWYRQAPGKERELVAAISWSGGTTYDADSVKGRFTISRDNAKNTVYLQMNSLKPEDTAVYYCAAQYIGKKRFNYWGQGTQVTVSS”: the “polyreactivity (PSR sort gate)” value is on record as “high polyreactivity”. As to “QVQLVESGGGLVQAGGSLRLSCAASGRIFSNNAMGWYRQAPGKERELVATITGSGGRTYYADSVKGRFTISRDIAKNSVYLQMNSLKPEDTAVYYCNADLYSYYWRVRYGLDYWGQGTQVTVSS”, the “polyreactivity (PSR sort gate)” value was “high polyreactivity”. Take “QVQLVESGGGLVQAGGSLRLSCAASGRIFSNYAMGWYRHAPGKEREFVAAISGSGGITYYADSVKGRFTISRDNAKNTFYLQMNSLKPEDTAVYYCARRLHYVPLISYNYWGQGTQVTVSS”: the “polyreactivity (PSR sort gate)” value is recorded as “low polyreactivity”. On to “QVQLVESGGGLVQAGGSLRLSCAASGRIFSNYAMGWYRQAPGKERELVAAISRGGGRTFYADSVKGRFTISRDNAKNTVYLQMNSLKPEDTAVYYCATRSYYVKGDYWGQGTQVNVSS”, for which the “polyreactivity (PSR sort gate)” value is listed as “high polyreactivity”. With “QVQLVESGGGLVQAGGSLRLSCAASGRIFSPNAMGWYRQAPGKERELVAAITRGGSTNYADSVKGRFTISRDNAKNTVYLQMNSLKPEDTAVYYCAAQLAKTIRGRGYNSWGQGTKVTVSS” the entry was “low polyreactivity”; with “QVQLVESGGGLVQAGGSLRLSCAASGRIFSQNAMGWYRKAPGKERELVAAIRYSTGSTYYADSVKGRFTISRDNAKNTVYLQMNSLKPEDTAVYYCAADRWVSGYRRPRRGQAHYYWGQGTQVTVSS”, “high polyreactivity”.

“QVQLVESGGGLVQAGGSLRLSCAASGRIFSQYAMGWYRQAPGKERELVAAISRRTGSTYYADSVKVRFTISRDNAKNTVYLQMNSLKPDDTAVYFCNKARLGWSYRQDDYWGQGTQVTVSS”: the “polyreactivity (PSR sort gate)” value is given as “high polyreactivity”. With “QVQLVESGGGLVQAGGSLRLSCAASGRIFSRNAMGWYRKAPGKERELVATISAGGGRTSYADSVKGRFTISRDNAKNTVYLQMNSLKPEDTADYYCAARGQVGYYWGQGTQVTVSS” the entry was “high polyreactivity”; with “QVQLVESGGGLVQAGGSLRLSCAASGRIFSRNAMGWYRQAPGKERDLVAAITWRGGSTNYADSVKGRFTISRDNAKNTVYLQMNSLKPEDTAVYYCAARISRYPQDDSDYWGQGTQVTVSS”, “high polyreactivity”; with “QVQLVESGGGLVQAGGSLRLSCAASGRIFSRNAMGWYRQAPGKERELVAAISGSGTSTYYAVSVKGRFTISRDNAKNTVYLQMNSLKPEDTAVSYCAADYPAVISIRRYDYWGQGTQVTVSS”, “low polyreactivity”.

As for “QVQLVESGGGLVQAGGSLRLSCAASGRIFSRNAMGWYRQAPGKERELVAAITRIGGSTYYADSVKGRFTISRDTAKNTVYLQMNSRKPEDTAVYYSAARGSGKYGWGQGTQVTVSS”, the “polyreactivity (PSR sort gate)” value is reported as “high polyreactivity”. For the sequence “QVQLVESGGGLVQAGGSLRLSCAASGRIFSRNTMGWYRQAPGKERELVATISWSGSRTYYADSVKGRFTISRDNAKNTVYLQMNSLKPEDTAVYYCAARLWPSYLSYGKTGDYWGQGTQVTVSS”, the “polyreactivity (PSR sort gate)” value is “high polyreactivity”. As for “QVQLVESGGGLVQAGGSLRLSCAASGRIFSRYALGWYRQAPGQERELDAAINKSGGSTYYADSVKGRFTISRDNAKNTVYFQMKSMKAEDTAVYYCTAVYYWYKGDYWGQGTQVTVSS”, the “polyreactivity (PSR sort gate)” value is “high polyreactivity”.

Consider “QVQLVESGGGLVQAGGSLRLSCAASGRIFSRYAMGWYRQAPGKERELVAAINKSGGSTYYADSVKGRFTISRDNAKNTVYLQMNSLKPEDTAVYYCAAALGRRRTGYDYWGQGTQGTVSS”, for which the “polyreactivity (PSR sort gate)” value was “high polyreactivity”. The same measure for “QVQLVESGGGLVQAGGSLRLSCAASGRIFSRYAMGWYRQAPGKERELVAAIRWSGGRTYYADSVKGRFTISRDNAKNTVYLQMNSLKPEDTAVYYCAKYRYTVAGYNYWGQGTQVTVSS”: “high polyreactivity”. Regarding “QVQLVESGGGLVQAGGSLRLSCAASGRIFSRYAMGWYRQAPGKERELVAAISRAASTNYADSVKGRFTISRDNAKNTVYLQMNSLKPEDTAVYYCNKRLYGYYGRYDYWGQGTQVTVSS”, the “polyreactivity (PSR sort gate)” value is listed as “low polyreactivity”. Regarding “QVQLVESGGGLVQAGGSLRLSCAASGRIFSRYAMGWYRQAPGKERELVAGITRSGTTTYYADSVKGRFTISRDNAKNTVYLQMNSLKPEDTAVYYCAAPPIRPNLYDYWGQGTQVTVSS”, the “polyreactivity (PSR sort gate)” value is “high polyreactivity”. As for “QVQLVESGGGLVQAGGSLRLSCAASGRIFSRYAMGWYRQAPVKERELVATITRSGARTYYADSVKGRFTISRDNAKNTVYLQMNSLKPEDTAVYYCATPYKYVTGEDYWGQGTQVTVSS”, the “polyreactivity (PSR sort gate)” value is on record as “high polyreactivity”. In the case of “QVQLVESGGGLVQAGGSLRLSCAASGRIFSRYAMVWYRQAPGKERELVAAINKSGGSTYYADSVKGRFTISRDNAKNTVYLQMNSLKPEDTAVYYCNAVYYWYKGDYWGQGTQVTVSS”, the “polyreactivity (PSR sort gate)” value is reported as “high polyreactivity”.

In the case of “QVQLVESGGGLVQAGGSLRLSCAASGRIFSRYVMGWYRQAPGKERELVAAISWNGGSTYYADSVKGRFRISRDNAKNTVYLQMNSLKPEDTAVYYCAARVRVTGTYYTKYDYWGQGTQVTVSS”, the “polyreactivity (PSR sort gate)” value was “high polyreactivity”. As to “QVQLVESGGGLVQAGGSLRLSCAASGRIFSRYVRGWYRQAPGKEREFVASITWSGSSTYYADSVKGRFTISRDNAKNTVYLQMNSLKPEDTAVYYCAALGLLSPSPWGTHISEYDSWGQGTQVTVSS”, the “polyreactivity (PSR sort gate)” value was “low polyreactivity”. The same measure for “QVQLVESGGGLVQAGGSLRLSCAASGRIFSSNAMGWYRQAPGKERELVASISSTGSTKYADSVKGRFTISRDKAKNTVYLQMNSLKQEDSAVYYCAAGRYLWHFTFDYWGQGTQVTVSS”: “low polyreactivity”; for “QVQLVESGGGLVQAGGSLRLSCAASGRIFSSNAMGWYRQAPGTERELVASLSSTGSPKYADSVKGRFTISRDNAKNTVYLQMNSLIPEDTAVYYCAATQVRRGPAWGRDYWGQGTQVTVSS”: “low polyreactivity”; for “QVQLVESGGGLVQAGGSLRLSCAASGRIFSSYAMGWYRKAPGKERELVAAIRRGGGSTSYADSVKGRFTISRDNAKNTVYLQMNSLKPEDTAVYYCAADSPRGQVHYIGGYWGQGTQVTVSS”: “low polyreactivity”. Consider “QVQLVESGGGLVQAGGSLRLSCAASGRIFSSYAMGWYRQAPGKERELVARISYSGGSTYYADSVKGRFTISRDNAKNTVYLQMNSLKPEDTAVYYCNARYYGYGAGYRPYDYWGQGTQVTVSS”, for which the “polyreactivity (PSR sort gate)” value is listed as “high polyreactivity”. Regarding “QVQLVESGGGLVQAGGSLRLSCAASGRIFSTNAMGWYLQAPGKERELVAGINSGGSTNYADSVKGRFTISRDNAKNTVYLQMNSLKPEDTAVYYCNASLPVDSWYVQYGVDYDYWGQVTQVTVSS”, the “polyreactivity (PSR sort gate)” value is “low polyreactivity”. For “QVQLVESGGGLVQAGGSLRLSCAASGRIFSTYAMGWYRQAPGKERELVAAINSIGGRTYYADSVKGRFTISRDNAKNTVYLQMNSMKPEDTAVYYCAASRFRTGQEDDYWGQGTQVTVSS”, the “polyreactivity (PSR sort gate)” value was “high polyreactivity”.

As to “QVQLVESGGGLVQAGGSLRLSCAASGRIFSTYAMVWYREAPGKEMELVAAINKIGGSTYYADSVKGRFTISRDNAKNTVYLQMNSLKPEDTAVYYCAADAPYYPFRRYYYWGQGTQVTVSS”, the “polyreactivity (PSR sort gate)” value was “low polyreactivity”. Regarding “QVQLVESGGGLVQAGGSLRLSCAASGRIFSTYVMGWYRQAPGKERELVAAIRNNGGSTYYADSVKGRFTISRDNAKNTVYLQMNSLKPEDTAVYFCAKKSFFTGRWWYDYWGQGTQVTVSS”, the “polyreactivity (PSR sort gate)” value is recorded as “high polyreactivity”.

Consider “QVQLVESGGGLVQAGGSLRLSCAASGRIFSTYVMGWYRQAPGKERELVAAITWSGGSTYYADSVKGRFTISRDNEKNTVYLQMNSLKPEDTAVYYCAADEIYGYDYWGQGTQVTVSS”, for which the “polyreactivity (PSR sort gate)” value was “high polyreactivity”.

“QVQLVESGGGLVQAGGSLRLSCAASGRIFSVNAMGWYRQAPGKERELVAAITPGASTNYADSVKGRFTISRDNAKNTVYLQMNSLKPEDTAVYYCAAGWVSFEDWVLGSYYEFDYWGQGTQVTVSS”: the “polyreactivity (PSR sort gate)” value is on record as “low polyreactivity”. With “QVQLVESGGGLVQAGGSLRLSCAASGRIFSVYALGWYRQAPGKERELVAAISSGDSTYYADSVKGRFTISRDNAKNTVYLQMNSLKPDDTAVFYCAATFPFHDGDYWGQGTQVTVSS” the entry was “low polyreactivity”; with “QVQLVESGGGLVQAGGSLRLSCAASGRIFSWNAMGWYRQAPGKERELVARITNGGSTYYADSVKGRFTISRDNAKNTVYLQMNSLKPEDTAVYYCAAKYRYYWSSKSKGDYWGQGTQVTVSS”, “high polyreactivity”. With “QVQLVESGGGLVQAGGSLRLSCAASGRIFSYNAMGFYRQAPGKERELVAGITYGSTYYADSVKGRFTISRDNAKNTVYLQMNSLKPEDTAVYYCAADLSYTSVHGYRSDTLMDYWGQGTQVTVSS”, the “polyreactivity (PSR sort gate)” value is recorded as “low polyreactivity”. “QVQLVESGGGLVQAGGSLRLSCAASGRIFSYNAMGWYRPAPGKERELVASISWSGGRTYYADSVKGRFTISRDNAKNTVYLQMNSLKPEDTAVYYCAVRYRGYGYDWGQGTQVTVSS”: the “polyreactivity (PSR sort gate)” value is listed as “high polyreactivity”.

As for “QVQLVESGGGLVQAGGSLRLSCAASGRIFSYNAMGWYRQAPGKERELVAAISSDGSTYYADSVKGRFTISRDNAKNTVYLQMNSLKPEDTAVYYCNADPGLYDVLYSSGDFDYWGQGTQVTVSS”, the “polyreactivity (PSR sort gate)” value is recorded as “low polyreactivity”.

On to “QVQLVESGGGLVQAGGSLRLSCAASGRIFSYNAMGWYRQAPGKERELVAAISYRGGSTYYADSVKGRFTISRDNAKNTVYLQMNSLNPEDTAVYYCNAEAYYPYGYDYWGQGTQVTVSS”, for which the “polyreactivity (PSR sort gate)” value is listed as “low polyreactivity”.
